Data taken from the nanobody polyreactivity screen of Harvey et al. (2022).

assay: yeast display, Sf9 membrane polyspecificity reagent, FACS + sequencing; frameworks hold sequencing errors
In short: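 After 36–48 hours of galactose induction, yeast (Saccharomyces cerevisiae BJ5465) displaying a synthetic nanobody library were stained at 4 °C for 1 hour with 10% biotinylated, detergent-solubilized Sf9 membrane reagent. Streptavidin microbeads enriched the stained cells before FACS sorting into low and high (top ~1%) gates on anti-HA and streptavidin fluorescence. Each clone's polyreactivity label reflects its gate of origin.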

Q: Which “polyreactivity (PSR sort gate)” value does the source give for “QVQLVESGGGLVQAGGSLSLSCAASGYTFSYYAMGWYRQAPGKERELVARITYSGGSTYYADSVKGRFTISRDNAKNTGYLQIKSLKPEDTAVYYCAARLRYPYWYYYWGQGTQVTVSS” here?
A: high polyreactivity

Q: With “QGQLVESGGGLVQAGGSLRLSCAASGRIFRANAMGWYRQAPGKERELVAAIDASGGSTYYADSVKGRFTISRDNAKNTVYLQMNSLKPEDTAVYDCAADRGFLRSFAPGNMDYWGQGTQVTVSS” as the sequence, how does the “polyreactivity (PSR sort gate)” value read?
A: low polyreactivity

Q: Which “polyreactivity (PSR sort gate)” value does the source give for “QVQLVESGGGLVQAGGSLRLSCAASGRTFVTNAMGWYRQAPGKERELVATINWSGGRTHYADSVKGRFTISRDNAKNTVYLQMNSLKPEDTEVYYCAKASSRRYWTIRDGDYWGQGTQVTVSS” here?
A: low polyreactivity

Q: For “QVQLVESGGGIVQAGGSLRLSCAASGSTFRAYVMGWSRPAPGKERELVAAITYRGTSTYYADSVKGRFTISRDNAKYTVYLQMNSLKPEDTAVYYCAARRLYTRGTYDYWGLGTQVTVSS”, which “polyreactivity (PSR sort gate)” value is on record?
A: high polyreactivity

Q: With “QVQLVESGGGLVQAGGSLRLSCAASGRTLWLYTMGWYRQATGKERELVARSRSGGSTYYADSVKGRFTISRDNAKNTVYLQMNSLKPEDTAVYYCAAFPYWIHYEHYYWGQGTQVTVSS” as the sequence, how does the “polyreactivity (PSR sort gate)” value read?
A: high polyreactivity

Q: With “QVKLVESGGGLFQAGGSLRLSCAASVSIFYGNAIVWYRQAPGKERELVAAISSRGTRTYYADSVKGRFTISRDNAKNTVYLQMNSLNPEATAVYYCAAADYRFYNGPYSRRWLYGYWGQGTQVTVSS” as the sequence, how does the “polyreactivity (PSR sort gate)” value read?
A: high polyreactivity

Q: With “QVQLVESGGGLVQAGGSLRLSCAASGRTFFKYAMGWYRQAPGKERELVAAITGRGGSTYADSVKGRFTISRDNAKNTVYLQMNCLKPEDTAVYYCAKVFQRGAQYYYYKYDYWGQGTQVTVSS” as the sequence, how does the “polyreactivity (PSR sort gate)” value read?
A: high polyreactivity

Q: Which “polyreactivity (PSR sort gate)” value does the source give for “QVQLVESGGGLVQAGGSLRLSCAASGSISVVNMGWYRQAPGKERELVASITSSGSTTYADSVKGRFTISRDNAKNTVYLQMNSLKPEDTAVYYCAADVGTDYTYQHPAGAAYDYWGQGTQVTVSS” here?
A: low polyreactivity

Q: With “QVQLVESGGGLVQAGGSLRLSCAASGRTLARTALGWYRQAPGKERELVAAISRRAVRTYYADSVKGRFTISRDNAKNTVYLQMNILKPEDTAVYYCYAASSLPGYDYWGQGTQVTVSS” as the sequence, how does the “polyreactivity (PSR sort gate)” value read?
A: high polyreactivity

Q: For “QFQLVESGGGLLQAGGSLRLSCAASGSTFYRYVMGWYRQATGKERELVAAITWRGGTTYYADSVKGRFTISRDNAKNTVYLKMISLKPDDTAVYYCNADRGGLRWFWQVLYDYWGQGTQVTVSS”, which “polyreactivity (PSR sort gate)” value is on record?
A: low polyreactivity

Q: With “QVQLVESGGGLVQAGGSLRLSCAASGGIFPDYAMGWYRQAPGKERELVAVISDSGGSTYYADSVKGRFTISRDNAKNTVYLQMNSLKPEDTAVYYCSAETEWYYGYYEYWGQGTQVTVSS” as the sequence, how does the “polyreactivity (PSR sort gate)” value read?
A: high polyreactivity

Q: With “QVQLVESGGGLVQAGGSLRLSCAASGRTLYSYAMGWYRQAPGKERELVAAITSGGRTYYADSVKGRFTISRDNAKNTVYLQMNRLTPEDTAVYYCNDRRTFPRYDRNYESWGQGTQVTVSS” as the sequence, how does the “polyreactivity (PSR sort gate)” value read?
A: high polyreactivity

Q: Which “polyreactivity (PSR sort gate)” value does the source give for “QVQLVESGGGLVQAGGSLRLSCAASGSIFSTYAMGWYRQAPGTERELVAAITWSGGSTYYADSVKGRFTISRDNAKNTVYFQMNSLKPEDTAVYYCATRGQGWGGKYGYWGQGTQVTVSS” here?
A: low polyreactivity

Q: With “QVQLVESGGGLVQAGGSLRLSCAASGSIFAHYAMGGYRQAPGKERELVAAITRGGGTYYADSVKGRFTLSRDNAKNTVYLQMNSVKPEDTAVYYCARIYYVSIYRYDYWGQGTQVTVSS” as the sequence, how does the “polyreactivity (PSR sort gate)” value read?
A: high polyreactivity

Q: For “QVQLVESGGGLVQAGGSLRLSCAASGSTFAFNAMGWYRQAPGKEREFVARITWTYGSTYYADSVKGRFTISRDNAKNTVYLQMNSLKPEDTAVYYCARDPTEQAIARWTYDYWGQGTQVTVSS”, which “polyreactivity (PSR sort gate)” value is on record?
A: low polyreactivity

Q: With “QDQLVESGGGLVQAGGSLRLSCAPSGRTFYSYAMGWYRQAPGKERELVATIDSGGRTNYADSVKGRFTISRDNAKNTVYLQMNSLKPEDTAVYYCAASVWNWYFGIRYDYWGQGTQVTVSS” as the sequence, how does the “polyreactivity (PSR sort gate)” value read?
A: high polyreactivity

Q: Which “polyreactivity (PSR sort gate)” value does the source give for “QVQLVESGGGLVQAGGSLRLSCAASGSIFWYNAMGWYRQAPGKERELVAAIRWRGGSTYYADSVKGRFTISRDNAKNTVYLQMNSLKPEDTAVYDCAAQVYVSQLYTSYYYWGQGTQVTVSS” here?
A: high polyreactivity

Q: With “QVQILESGVCLVQARGSLRLSCAASGRTFRSNAMGWYRQAPGKERDLVAAITSSGGRTYYADSVKGRFTISRDNAKNTVYLQMNILKPEDTAVYYCNAVLRQYYRAYDYWGQGTQGTVSS” as the sequence, how does the “polyreactivity (PSR sort gate)” value read?
A: high polyreactivity

Q: With “QVQLVESGGGLVKAGGSLRLSCGASGSIFDFYVMGWYRQAPGKERELVGAISSGGSTYYADSVKGRFTISRDNAKHTVYVQMNSLKPADTAVYYCAAYPEYVSGAWYDYWGQGTQVTVSS” as the sequence, how does the “polyreactivity (PSR sort gate)” value read?
A: low polyreactivity

Q: For “QVQLVESGGGLVQAGGSLRLSCAASGNIFFRYTMGWYRQAPGKERELVAASSASGGSTYYADSVKGRFTISRDNAKNTVYLQMNSLKPEDTAVYYCAARILHYTSEYYYWGQGTQVTVSA”, which “polyreactivity (PSR sort gate)” value is on record?
A: high polyreactivity

Q: For “QVQLQESGGGLVQAVASLRLSCEASVSISSLDYMGWYRQASGKERELVAAIDNGSTTYYADSVKGRLTISRDNAKYTVYLQMNSLKPEDTAVYFCAAVRGRGGTHAYWGQGTQVTVSG”, which “polyreactivity (PSR sort gate)” value is on record?
A: low polyreactivity

Q: With “QVQLVESGGGLVQAGGSLRLSCAASGFIFRRYAMGWYRQAPGKERELVAAITRSGGSTYYADSVKGRFTISRDTSKNTVYLQMNSLNPEDTAVYYCATKSSGPVLGYGYDYWGQGTQVTVSS” as the sequence, how does the “polyreactivity (PSR sort gate)” value read?
A: high polyreactivity

Q: With “QVQLVESGGGLVQAGGSLRLSCAASGSIFYYYAMGWYRQAPGKERELVAAISYGGGSTYYADSVKGRFTISRDNAKNTVYLQMNSLKPEDTAVYYCAVQEVVGWYLYDYWGQGTQVTVSS” as the sequence, how does the “polyreactivity (PSR sort gate)” value read?
A: high polyreactivity

Q: For “QDQLVESGGGLVQAGGSLRLSCAASGLIIRWYAMGWDRQAPGKERELVAAISGNGGRTYYADSVKGRFTISRDNASNTVYLQMNSLKPEDTAVYYCAAEYRRALGVDYWGQGTQVTVSW”, which “polyreactivity (PSR sort gate)” value is on record?
A: high polyreactivity

Q: With “QVQLVESGGGLVQAGGSLRLSCAASGSIFISYAMGWYRQAPGKERELVAAISSGGSTNYADSVKGRFTISRDNAKNTVYLQMNSLKPEDTAVYYCAADGWLLSFTGDGWWFDYWGQGTQVTVSS” as the sequence, how does the “polyreactivity (PSR sort gate)” value read?
A: low polyreactivity

Q: Which “polyreactivity (PSR sort gate)” value does the source give for “QVQLVESGGGIVQAGGSLRLSCAASGSTFWIYAMGWYRQAPGKERELVAAISWRGGRTYYADSVKGRFTISRDNAKNTVYLQMNSLKPQDTAVYYCNAQKRDGSMGYWGQGTQVTVSS” here?
A: high polyreactivity

Q: With “QVQIVESGGGLVQAGGSLRLSCAASGRTFWRYTMGWYRQAPGKERELVASISTGGGSTYYADSVKGRFTISRDNAKNTVYLQMNSLKPEDTAVYYCNVEYVSVSRVWRGNYWGQGTQVTVSS” as the sequence, how does the “polyreactivity (PSR sort gate)” value read?
A: low polyreactivity

Q: With “QVQLVESGGGLVQAGGSLRLSCAASGITLGYYVMGWYRQAPGKERELVAAISSSGGRTYYADSVKGRFTISRDTAKNTVYLQMNSLKPEDTAVYYCAADLGRGIYDYWGQGTQVTVSS” as the sequence, how does the “polyreactivity (PSR sort gate)” value read?
A: low polyreactivity

Q: For “QVQLVESGGGLVQAGGSLRLSCAASGIIFAYNAMGWYRQAPGNERELVAAITSGTSTHYADSVKGRFTISRDNAKNTVYLQMNSLKPEDTAVYYCAKVYSYFNPRTYKPSFAGSDYWGQGTQVTVSS”, which “polyreactivity (PSR sort gate)” value is on record?
A: low polyreactivity

Q: With “QVQLVESGGGLVQAGGSLRLSCPASGRIFTGYAMGWYRQSPGKERELVASISDSGASTYYADSVKGRFTISRDNAKNTVYLQMNSLKPEDTAVYYCAADWTLDTSYGYYADDFWGQGTQVTVSS” as the sequence, how does the “polyreactivity (PSR sort gate)” value read?
A: low polyreactivity

Q: For “QVQLVESGGGLVQAGGSLRLSCAASGSIFTVYAMGWYRQAPGKERELVAAISRRGGSTYYADSVKGRFTISRDNAKNTVYLQMNSLKPEDTAVYYCAALERTLDNKYQFGYWGQGTEVTVSS”, which “polyreactivity (PSR sort gate)” value is on record?
A: high polyreactivity

Q: For “QVQLVESGGGLVQAGGSLRLSCAASGSTFEYYAMGWYRQAPGKERELVATMSIDGRTNYADSVKGRFTISRDNAKNTVYLQMNSLKPEDTAVYYCAARPYWRHRYDYWGQGTQVTVSS”, which “polyreactivity (PSR sort gate)” value is on record?
A: low polyreactivity

Q: Which “polyreactivity (PSR sort gate)” value does the source give for “QVQLVESGGGLVQAGGSLRLSCAASGLTFERNAMGWYRQAPGKERELVAAISSGGSTYYADSVKGRFTISRDNAKNTVYLQMNSLKPEDTAVYYCAVYDWNSYFYRSWWSGFYYWGQGTQVTVSS” here?
A: low polyreactivity

Q: For “QVQLVESGGGLVQAGGSLRLSCAASGRTFYDNAMGWYRQAPGKERELVAVISTSGARTYYADSVKGRFTISRDNAKNTVYLQMNSLKPEDTAVYYCAARRYKYSWDSGYDLYYWGQGTQVTVSS”, which “polyreactivity (PSR sort gate)” value is on record?
A: high polyreactivity

Q: Which “polyreactivity (PSR sort gate)” value does the source give for “QVQLVESGGGLVQAGGSLRLSFAASGGIFWHYTRGWYRQAPGKERELVAAITRRGGSTYYADSVKGRFTISRDNAKNTVYLQMNSLKPEDTAVYYCAADFLPQSYNWYDYWGQGTQVTVSS” here?
A: low polyreactivity

Q: For “QVQLVESGGGLVQAGGSLRLSCAASGYIFLRNAMGWSRQAPGKERELVASISSDDTSTHYADSVKGRFTISRDNAKNTVYLQMNSLKPEDTAVYYCAARNTPAYIDYNYWGQGTQVTVSS”, which “polyreactivity (PSR sort gate)” value is on record?
A: low polyreactivity

Q: Which “polyreactivity (PSR sort gate)” value does the source give for “QVQLVESGGGLVQAGGSLRLSCAASGSIYTNAMGRYRQAPGKERELVAAISWSGGRTYYADSVKGRFTISRDNAKNTVYLQMNILKPEDTAVYYCNTRGTRIASGHYYWGQGNQVTVSS” here?
A: high polyreactivity

Q: Which “polyreactivity (PSR sort gate)” value does the source give for “QVQLVESGGGLVQAGGSLRLSCAASGSILRSYAMGWYRQAPGKERELVAVINGSGGRTYYADSVKGRFTISRDNAKNTVYLQMNSLKPEDTAVYYCAARRHTKRPGYDYWGQGTQVTVSS” here?
A: low polyreactivity

Q: For “QVQLVESGGGLVQAGGSLRLSCAASGRILAYYAMGWYRQAPGKERELVDAINRSGVRTYYADSVKGRFTISRDYAKNTVYLQMNSLKPEDTAVYYCAAPGQHSWGQGTQVTVSS”, which “polyreactivity (PSR sort gate)” value is on record?
A: high polyreactivity

Q: Which “polyreactivity (PSR sort gate)” value does the source give for “QVQLVESGGGLVQAGGSLRLSCAASGSIFWANAMGWYRQAPGKERELVAAISSSGGRTYYADSVKGRFTISRDNAKNTVYLQMNSLKPEDTAVYYCNKLRLAYYEQGDYWGQGTQVTVSS” here?
A: high polyreactivity
